Source: the Immune Epitope Database (IEDB)
Values belong to the sequence of their own block, whether it stands above or below them.

Tests used:
HLA-A*32:01 = test: IEDB peptide-MHC binding, purified MHC/competitive/radioactivity; filed as Kd, often an IC50 or EC50 that approximates it; ≥ and ≤ were set here for values at or beyond the usual limits of such assays
HLA-A*01:01 = test: as above
HLA-A*24:02 = test: as above
HLA-A*26:01 = test: as above
HLA-A*23:01 = test: as above
HLA-A*29:02 = test: as above
HLA-A*30:02 = test: as above
HLA-B*53:01 = test: as above; settings: source organism: Dengue virus 2 Jamaica/1409/1983
HLA-B*44:02 = test: as above
HLA-A*31:01 = test: as above
HLA-A*33:01 = test: as above
HLA-A*11:01 [1] = test: as above
HLA-A*68:01 = test: as above
HLA-A*03:01 [2] = test: as above; settings: source organism: Triticum aestivum
HLA-A*03:01 [3] = test: IEDB peptide-MHC binding, purified MHC/direct/fluorescence; filed as Kd, often an IC50 or EC50 that approximates it; ≥ and ≤ were set here for values at or beyond the usual limits of such assays; settings: source organism: Campylobacter jejuni RM1221
HLA-A*11:01 [4] = test: as above; settings: source organism: Campylobacter jejuni RM1221
HLA-B*44:03 = test: IEDB peptide-MHC binding, purified MHC/competitive/radioactivity; filed as Kd, often an IC50 or EC50 that approximates it; ≥ and ≤ were set here for values at or beyond the usual limits of such assays
HLA-A*02:03 = test: as above; settings: source organism: Dengue virus 4 Philippines/H241/1956
HLA-B*40:01 = test: IEDB peptide-MHC binding, purified MHC/direct/fluorescence; filed as Kd, often an IC50 or EC50 that approximates it; ≥ and ≤ were set here for values at or beyond the usual limits of such assays; settings: source organism: Mycobacterium tuberculosis
[5] = source organism: Vaccinia virus WR
[6] = source organism: Mammarenavirus mopeiaense
[7] = source organism: Dengue virus 1 Brazil/97-11/1997
[8] = source organism: SARS coronavirus Tor2
[9] = source organism: Triticum aestivum
[10] = source organism: Dengue virus 2 Jamaica/1409/1983
[11] = source organism: Mammarenavirus whitewaterense
[12] = source organism: Mammarenavirus guanaritoense
[13] = source organism: Dengue virus 4 Philippines/H241/1956
[14] = source organism: Dengue virus 3 Martinique/1243/1999

Sequence: RVLFNNFKI
Kd (HLA-A*32:01; [5]): 0.885 nM

Sequence: IKIPTHRHI
Kd (HLA-A*01:01; [6]): 16600 nM
Kd (HLA-A*24:02; [6]): ≥ 57100 nM
Kd (HLA-A*26:01; [6]): ≥ 77900 nM
Kd (HLA-A*23:01; [6]): ≥ 24800 nM
Kd (HLA-A*29:02; [6]): ≥ 78900 nM
Kd (HLA-A*30:02; [6]): ≥ 76900 nM

Sequence: QPTELKYSW
Kd (HLA-B*53:01): 11 nM

Sequence: AERVLDWLEK
Kd (HLA-B*44:02; [7]): 3270 nM

Sequence: LFADINGKL
Kd (HLA-A*01:01; [8]): ≥ 78100 nM
Kd (HLA-A*24:02; [8]): 722 nM
Kd (HLA-A*26:01; [8]): ≥ 41700 nM
Kd (HLA-A*23:01; [8]): 1300 nM
Kd (HLA-A*29:02; [8]): 470 nM
Kd (HLA-A*30:02; [8]): 4340 nM

Sequence: ADAGFMKQY
Kd (HLA-A*01:01; [8]): ≥ 87700 nM
Kd (HLA-A*24:02; [8]): ≥ 77600 nM
Kd (HLA-A*26:01; [8]): ≥ 81500 nM
Kd (HLA-A*23:01; [8]): ≥ 77800 nM
Kd (HLA-A*29:02; [8]): 15300 nM
Kd (HLA-A*30:02; [8]): ≥ 46200 nM

Sequence: YIAVNDKALY
Kd (HLA-A*01:01; [8]): 12.9 nM
Kd (HLA-A*24:02; [8]): ≥ 70300 nM
Kd (HLA-A*26:01; [8]): 2600 nM
Kd (HLA-A*23:01; [8]): ≥ 55000 nM
Kd (HLA-A*29:02; [8]): 8.81 nM
Kd (HLA-A*30:02; [8]): 141 nM

Sequence: ATSRTLSYY
Kd (HLA-A*01:01; [8]): 4.81 nM
Kd (HLA-A*24:02; [8]): ≥ 35700 nM
Kd (HLA-A*31:01; [8]): 3880 nM
Kd (HLA-A*26:01; [8]): 1940 nM
Kd (HLA-A*33:01; [8]): ≥ 77700 nM
Kd (HLA-A*23:01; [8]): ≥ 77800 nM
Kd (HLA-A*11:01 [1]; [8]): 28.5 nM
Kd (HLA-A*29:02; [8]): 12 nM
Kd (HLA-A*68:01; [8]): 1200 nM
Kd (HLA-A*30:02; [8]): 1.03 nM

Sequence: GPLTTLWEGS
Kd (HLA-A*32:01; [7]): 18200 nM

Kd (HLA-A*01:01; [9]): ≥ 48900 nM
Kd (HLA-A*24:02; [9]): 676 nM
Kd (HLA-A*26:01; [9]): ≥ 25900 nM
Kd (HLA-A*23:01; [9]): 19800 nM
Kd (HLA-A*29:02; [9]): 1530 nM
Kd (HLA-A*30:02; [9]): 185 nM
Sequence: QFPGQQQPF

Sequence: GYTMHANYI
Kd (HLA-A*01:01; [8]): ≥ 78100 nM
Kd (HLA-A*24:02; [8]): 13500 nM
Kd (HLA-A*26:01; [8]): ≥ 77900 nM
Kd (HLA-A*23:01; [8]): 6960 nM
Kd (HLA-A*29:02; [8]): ≥ 88200 nM
Kd (HLA-A*30:02; [8]): ≥ 78900 nM

Sequence: RTFNRTHYW
Kd (HLA-A*32:01; [5]): 0.243 nM

Kd (HLA-A*01:01; [9]): 38.5 nM
Kd (HLA-A*24:02; [9]): ≥ 70300 nM
Kd (HLA-A*31:01; [9]): ≥ 70000 nM
Kd (HLA-A*26:01; [9]): ≥ 43000 nM
Kd (HLA-A*33:01; [9]): ≥ 70000 nM
Kd (HLA-A*03:01 [2]): 2340 nM
Kd (HLA-A*23:01; [9]): ≥ 42400 nM
Kd (HLA-A*11:01 [1]; [9]): 138 nM
Kd (HLA-A*29:02; [9]): 2840 nM
Kd (HLA-A*68:01; [9]): ≥ 70200 nM
Kd (HLA-A*30:02; [9]): 6090 nM
Sequence: VSFQQPLQQY

Sequence: AMYADDTAGW
Kd (HLA-B*44:02; [10]): 124 nM

Sequence: KVSDSNLHK
Kd (HLA-A*03:01 [3]): 190 nM
Kd (HLA-A*11:01 [4]): 4.6 nM

Sequence: GYVTHGFNL
Kd (HLA-A*01:01; [8]): ≥ 78100 nM
Kd (HLA-A*24:02; [8]): 1210 nM
Kd (HLA-A*26:01; [8]): ≥ 77900 nM
Kd (HLA-A*23:01; [8]): 234 nM
Kd (HLA-A*29:02; [8]): 839 nM
Kd (HLA-A*30:02; [8]): ≥ 78900 nM

Sequence: GTDLEGKFY
Kd (HLA-A*01:01; [8]): 33.4 nM
Kd (HLA-A*24:02; [8]): ≥ 77600 nM
Kd (HLA-A*26:01; [8]): ≥ 38800 nM
Kd (HLA-A*23:01; [8]): ≥ 77800 nM
Kd (HLA-A*29:02; [8]): 273 nM
Kd (HLA-A*30:02; [8]): 1390 nM

Kd (HLA-B*44:03; source organism: Homo sapiens): 66 nM
Sequence: AEPIDIQTW

Sequence: LRIPTHRHI
Kd (HLA-A*01:01; [11]): ≥ 25700 nM
Kd (HLA-A*24:02; [11]): ≥ 77500 nM
Kd (HLA-A*26:01; [11]): ≥ 77900 nM
Kd (HLA-A*23:01; [11]): ≥ 71500 nM
Kd (HLA-A*29:02; [11]): ≥ 33700 nM
Kd (HLA-A*30:02; [11]): ≥ 76900 nM

Sequence: IRHLFGNYI
Kd (HLA-A*01:01; [12]): ≥ 22200 nM
Kd (HLA-A*24:02; [12]): ≥ 43700 nM
Kd (HLA-A*26:01; [12]): ≥ 77900 nM
Kd (HLA-A*23:01; [12]): ≥ 22100 nM
Kd (HLA-A*29:02; [12]): 571 nM
Kd (HLA-A*30:02; [12]): ≥ 24100 nM

Sequence: TLYAVATTI
Kd (HLA-A*32:01; [13]): 356 nM
Kd (HLA-A*02:03): 11.2 nM

Sequence: VFQAKSAFV
Kd (HLA-A*01:01; [12]): ≥ 31400 nM
Kd (HLA-A*24:02; [12]): 1060 nM
Kd (HLA-A*26:01; [12]): ≥ 77900 nM
Kd (HLA-A*23:01; [12]): 855 nM
Kd (HLA-A*29:02; [12]): ≥ 78900 nM
Kd (HLA-A*30:02; [12]): 1050 nM

Sequence: AEIPLQWIA
Kd (HLA-B*44:03; [14]): 634 nM
Kd (HLA-B*44:02; [14]): 68.6 nM

Sequence: SQQKADWIPL
Kd (HLA-A*32:01; [10]): 2790 nM

Sequence: EEHKETWHY
Kd (HLA-B*44:03; [13]): 16.9 nM
Kd (HLA-B*44:02; [13]): 203 nM

Sequence: NEIRALMAL
Kd (HLA-B*40:01): 18.2 nM

Sequence: TTQTSALSI
Kd (HLA-A*32:01; [5]): 145 nM
